Changes are numbered by the printed parent chain.
B1: humanized anti-CD20 antibody 1635 (antibody, human IgG1, V domains shown)
VH: QVQLVQSGAEVKKPGASVKVSCKASGYTFTSYNMHWVRQAPGKGLEWIGAIYPGNGDTSYNQKFKGRVTITADKSTSTAYMELSSLRSEDTAVYYCARSTYYGGDWYFNVWGQGTTVTVSS
VL: DVVMTQSPAFLSVTPGEKVTITCRASSSVSYIHWFQQKPGKAPKPLIYATSNLASGVPSRFSGSGSGTDFTLTINSLEAEDAATYYCQQWTSNPPTFGGGTKVEIK
B2: humanized anti-CD20 antibody 3637 (antibody, human IgG1, V domains shown)
VH: B1 VH with N33T, G56S, S59N, Y107N, N109E
VL: B1 VL with N93K
notes: CDR-optimized variant (hVH-2 / hVK-2)
B3: humanized anti-CD20 antibody 1535 (antibody, human IgG1, V domains shown)
VH: B1 VH with A40P, K74E
VL: B1 VL
B4: humanized anti-CD20 antibody 1534 (antibody, human IgG1, V domains shown)
VH: B1 VH with A40P, K74E
VL: B1 VL with P45S
B5: humanized anti-CD20 antibody 1634 (antibody, human IgG1, V domains shown)
VH: B1 VH
VL: B1 VL with P45S

Tests used:
[1] = target: T1, CD20 (UniProt P11836 1-297, limits assumed); test: FACS on CD20+ Ramos cells (FIG. 12 legend)
T1 construct: whole, on cells; also called CD20 on CD20+ Ramos cells; antigen
T1 sequence (looked up): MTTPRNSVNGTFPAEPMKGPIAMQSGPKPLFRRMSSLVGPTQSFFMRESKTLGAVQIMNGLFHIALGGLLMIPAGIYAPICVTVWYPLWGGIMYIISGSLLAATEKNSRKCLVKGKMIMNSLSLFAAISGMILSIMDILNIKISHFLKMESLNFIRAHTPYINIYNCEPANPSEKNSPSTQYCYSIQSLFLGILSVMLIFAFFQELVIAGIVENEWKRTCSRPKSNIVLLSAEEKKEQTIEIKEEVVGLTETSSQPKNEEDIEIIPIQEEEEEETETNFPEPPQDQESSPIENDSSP
Protocol: (§1) The specific binding to CD20 was detected by using CD20+ Ramos cell (ATCC) and T lymphocyte leukemia Jurkat cell (ATCC). Cells were incubated with various concentration of antibodies for 1 hour at 4° C. After washing with PBS for 3 times, 1:100 diluted FITC labeled anti-human Fc γ specific second antibody (The Jakson Laboratory) was added and incubated for 1 h at 4° C. After washing with PBS for three times, specific binding was analyzed by FACS instrument.

[2] = target: T1, CD20; test: FACS on CD20+ Ramos cells, FITC anti-human Fc gamma second antibody
Protocol: as §1

Binder | binding result [1] | binding result [2]
B1 | binds | –
B2 | binds | –
B3 | – | binds
B4 | – | binds
B5 | – | binds

— US20130089540A1 (BIOEX THERAPEUTICS, published 2013)
